Data on 20 sequences can be found in the DeepSol protein solubility set.

A short description of the data set: soluble on expression in E. coli; label from the status in PepcDB or PDB records.
As for “MSLDLGSNSFHMVIARVVDGAMQIIGRLKQRVHLADGLGPDNMLSEEAMTRGLNCLSLFAERLQGFSPASVCIVGTHTLRQALNATDFLKRAEKVIPYPIEIISGNEEARLIFMGVEHTQPEKGRKLVIDIGGGSTELVIGENFEPILVESRRMGCVSFAQLYFPGGVINKENFQRARMAAAQKLETLTWQFRIQGWNVAMGASGTIKAAHEVLMEMGEKDGIITPERLEKLVKEVLRHRNFASLSLPGLSEERKTVFVPGLAILCGVFDALAIRELRLSDGALREGVLYEMEGRFRHQDVRSRTASSLANQYHIDSEQARRVLDTTMQMYEQWREQQPKLAHPQLEALLRWAAMLHEVGLNINHSGLHRHSAYILQNSDLPGFNQEQQLMMATLVRYHRKAIKLDDLPRFTLFKKKQFLPLIQLLRLGVLLNNQRQATTTPPTLTLITDDSHWTLRFPHDWFSQNALVLLDLEKEQEYWEGVAGWRLKIEEESTPEIAAEGHHHHHH”, the “soluble on expression in E. coli” value is “not soluble”.
On to “MGHHHHHHSHPRPEQHKSYKIRFNSISCSDPLVSSWRRKRKESSNTDSAGALGTLRFCVFGLGSRAYPHFCAFARAVDTRLEELGGERLLQLGQGDELCGQEEAFRGWAQAAFQAACETFCVGEDAKAAARDIFSPKRSWKRQRYRLSAQAEGLQLLPGLIHVHRRKMFQATIRSVENLQSSKSTRATILVRLDTGGQEGLQYQPGDHIGVCPPNRPGLV”, for which the “soluble on expression in E. coli” value is on record as “not soluble”.
In the case of “MSLSDDSTFGDATFVVLDFETTGLDPQVDEIIEIGAVKIQGGQIVDEYHTLIKPSREISRKSSEITGITQEMLENKRSIEEVLPEFLGFLEDSIIVAHNANFDYRFLRLWIKKVMGLDWERPYIDTLALAKSLLKLRSYSLDSVVEKLGLGPFRHHRALDDARVTAQVFLRFVEMMKKEGHHHHHH”, the “soluble on expression in E. coli” value is “soluble”.
Consider “MNGELYLKKGLLQLNKKLYDEALATLNKVIELDDDLASLTSAKCILGEYYFIHQNYEKSKEFLSWICDRQDELEEEFDDLLSEEINTASVLMELIEKYKL”, for which the “soluble on expression in E. coli” value is recorded as “not soluble”.
Take “MGSDKIHHHHHHVFDKNLRNSFFAEPYSSEPLAIRIREVLNGKVGFYSVGLYPASLAYNCALQNEGFNILLAPRDGRELFGAFSDIDLSEMDNGIKNKIESMAIPNEDKSGRYNTLKDLLINCELVVLSSNSKHIITDLDLAFKLRKELNRDNVLIACLVGSFCHDHNLNESFVLCEKLNKLAFFSGFHRHGALRNPLDSFTANFCHPDSMNAILGAKLLNKISPNIQVSAGIHNVEGQYIKAAKNISSIFAGFGHTFHKNNPGLLPTLLTLLLDQCLDQAAYVSMSRTDREDLYSKQPFPITELGYSVQRIEASYVKDGDFVQVRDHTFTQLKAMVADVRGSMMLPVSGNPTRNFQAGQVLAERMIEYKRCPKGVDEFIEWCERSGLKRGALEGINSLNYWPNILRKYSIPLNNSSMINLLYMCILGPVEIKNCIYNVMSSSRELANYCQESVKSSQNKKISEALDNFHLKTSVDFVTKSLIDDDKLFFENNEIGFDNPLGAQNMPIYNKVIDYMETYLLESNL”: the “soluble on expression in E. coli” value is on record as “not soluble”.
With “MSIGVVLAKITAEFPDVTVSKIRYLESEGLITPQRTSTGYRRFTQDDVERLRYILVTQRDNYLPLKVIREQLEAMDSGAVTPISRGSDNAPLISPESFRTSVVTRLSDSDVAARAQVSESEVSELAEAGLIRPDSSGFFTADDVQVVSVAVQLKEFGFDVRHLKSLRNLASRHADLISRATTPVARSQSESARQRAEEMSQQLSALVVSLNATMLRSMLRDELNR” the entry was “not soluble”.
Regarding “MEFRKSPSPDGDRIELVAIYDHDERIDMNDLHRSLTGFRILTLRISATYDQDIERIAFLPTIDKLTFCKDLLNAYNFQRIIMQSYEGIKAIGSRRTRIKLNDLLAANISFPIFMNVILPDAQLNLFIKYLIAGSNHRLDGFLFAKTPNAADFNEAAIFKGVNYQPVGGREAYPEFRNIQFQLHPRTRVFYVTNNNGILATVYLDIGLRYRIDIFPAGLMSSFPLLRLPSNELTKVLRHMNPIAQLGFSLLSEKSKNRISLLRIFSDEVSISVCAYKRKEKLTLRLRNSLSSLEVHKCGPDLVIVLQNWSDCTKLDFRREMSLRHWIDHCMELATAKRIDELTLSSIKKKHKFGISLLSERLKNLICSLQVFTTDVEIILRRSIELKIVPLFLVIGQTGQIEISSFTHFFLDNFIWIRPQMSTRNWIDHCLELTNNHRLNKLIVEAGDNQEIDMDGFYRSLIGLHIKTLELKGTYSRSIQLFGSLSNVDTIVLDVELVQTTDYQRMVVLNHTKLVETRTNRVKFSLNDLLASNASFLQFTNLRIPDTQLNLFLKHWIAGSNQRQEGFSLTKEHDEQSYNQSVILKGIETRPAVRRSEHHKFDEIFTLPQYSRTLDITNCDGVEATVYFGKSWLFNLGPVTNLCCMLVWG”, the “soluble on expression in E. coli” value is “not soluble”.
In the case of “MNYIRKLYKQDYRGFESLPHRRENVIEKYSVKSQRPLLKKYLVEDFGGMCIYCGWNCKRYDAASFHIEHIKSQIDNESLIDDYSNLALSCPICNTTKNKKALPSDLDPLGEDYKNLFYRNNRGAIVTNNDIEDRKKALSQQYIKILGLSKELYKLDYVQTSLNIIKRRLRQSDKINLELINSITEILDFIDDNYTRQSNLTLLEHHHHHH”, the “soluble on expression in E. coli” value is given as “not soluble”.
With “MSLESGFLEDAQANLTLRNFYFNRNFTNPTKAQGKAEEWTQSFILDAKSGFTQGTVGFGMDVLGLYSLKLDGGKGTGGTQLLPLDHDGRPADNFGRLGVAFKARLSQTEVKVGEWMPVLPILRSDDGRSLPQTFRGGQITSKEIAGLTLYGGQFRANSPRDDSSMSDMSMFGKAAFTSDRFNFQGAEYAFNDKRTQIALWNAQLKDIYSQQFINLIHSQPLGDWTLGANLGFFYGKEDGSARAGDMENRTWSGLFSAKYGGNTFYVGLQKLTGDSAWMRVNGTSGGTLANDSYNASYDNAKEKSWQVRHDYNFAALGVPGLTLMNRYISGSNVHTATVSDGKEWGRESEVAYTVQSGTLKNLNLKWRNSTMRRDFSNNEFDENRLIISYPLSLLEGHHHHHH”, the “soluble on expression in E. coli” value was “soluble”.
In the case of “MNRLDQLGIRINLICNVFDKWIGQQDLNYNLFTVLYTLATEGSRTQKHIGEEWSLPKQTVSGVCKTLAGQGLIEWQEGEQDRRERLLSLTEKGKVHAAPLTENAQEFSDKVFSTFGDKRTTRLFADLDALAEVMEKTISENKK” it was “not soluble”; in that of “MGSDKIHHHHHHMIHLSNITKQHGAQVLFRDASFQILPGTRTGLVGPNGAGKTTIFRIITGEEEVDAGEMTCAKKTTVGYFSQDVGEMAGRSALEEVMAGSAETVRLAAELKEMEAAMCEPQSDDEMAALLERYGAAQEEFEHRGGYDLDTRAQTVLTGLGIGPDRFHHPVESFSGGWKMRIALAKILTLKPDVLLLDEPTNHLDVESIIWLEEWLANDFDGALLMTSHDRDFMNRIVTRIIEVANRTVTTYGGNYDFYERERDIRREQLLASHKRQQEMLAKEEEFIARFAARASHAAQVQSRVKKLEKIERIEIPAEERMVRFEFSEPPRSGEDVVVMENLGKVWQTPDGGEKPVFGGVSGIIRRLNKIAVVGVNGAGKSTFLKVLAGQTEPTTGTVTIGANVELGYFSQHAMEVLDPKKTVFETVQEAMPLANIGVIRNLLAAFLFQGDTVDKRVENLSGGEKSRVVLATLLARPVNFLVLDEPTNHLDIRSREILLDALRNFAGTVVIVSHDRHFLRSLVDRVFEVDHGEMRVYEGDYSYYLRKSHELHGLP”, “not soluble”.
Take “MPSSTTVPTRRGLVSGPSSSDAHGDMPAVSVIMNCLNCERDLAEAIGSVFAQTFDDWEIVFWDNGSTDRSAEIAQGFGERVRYFRATETVPLGAARNLAIAKARGEFIAFLDCDDVWLPEKLERQVALFRANPRVGLVCTDTVMFTGAKDLNRLFEHAHPARGHVFRELMTTQWISMSSAVIRRNALDGMDHWFDESLNVCEEADVFYRIAWDWELDHVDAPLTRWRVHGANTTFRKFGQFAEETLRILDKHRAMYPGYDERYADLVALLRRRAAFQRAVALWREGRGAEARATIAPFDASPKFRLFRLATYLPGALFDPLARLYFALPAFLRRLEHHHHHH”: the “soluble on expression in E. coli” value was “not soluble”.
In the case of “MAHHHHHHMGTLEAQTQGPGSMSDIPSDLHYTAEHEWIRRSGDDTVRVGITDYAQSALGDVVFVQLPVIGTAVTAGETFGEVESTKSVSDLYAPISGKVSEVNSDLDGTPQLVNSDPYGAGWLLDIQVDSSDVAALESALTTLLDAEAYRGTLTE” it was “soluble”.
Regarding “MSGISIIENAVLKPTKREVAEQWLGYFEHIGSYRFVDPDGQVGIESLIGFDLDRRLVQMPVTYRSAEFDAEHTLTTMDHSVLGTRYVSNAMGDPVAVREYIRVILEADNGAQRSDGKVSVLDVRGSGNREEKLTLGEVRILEATRQRAVGYVRIDGTLRGFVLRVPHLLVPENSPRLGHNISPMRLNGSVVMSPKTVLIAAELSWHDI”, the “soluble on expression in E. coli” value was “not soluble”.
Regarding “MVTLASHLDACPDAAIWGSSKTENLGVEKIIVNVISNSNIRYVLVCGTESRGHLAGHSLLAIHANGIDEQGRITGSQGAIPFIENISGTAVERFQQQVTVLNRIGLNDPEEIRRIVEDYRDKGEAYPEEPMLVCAPKKRQTSFAVPTSGDVIISGEFVMDSKAGIIYTAESL”, the “soluble on expression in E. coli” value is given as “not soluble”.
On to “MGSDKIHHHHHHMKIDVEAFRVLSILVEEGSFSKAAERLHKAQSAVSYQVKKLEQHLGVKLFCRDQYRAELTPEGKVILAEGKRLLQYLGNIEHLASRFSEGWEPKLELVVDGSLPMEPIMRALKRVSEHKIPTKIQLNMEFLGGVQHRFERDNADLMLVKDYRTGPNYRPQPLPDINSILVVSRSHPLAKAKELSLFELLQHVELTIEDSSPGKIHSDELQFGGDKVFYLSGFIMKKNALLMGLGFGWMPDFLIQEELASGELQELDFLGGSRYSFTPQLVSTMERPLGRAGRLFTSLILEEFNLYQAQASR”, for which the “soluble on expression in E. coli” value is listed as “not soluble”.
As for “MSLKRQRIVIKIGSSSLTTKQGALDLEKLEGYVRAIVNLRKAGHEVILISSGAVAAGFSRLGYPVRPTTMAGKQAAAAVGQALLMQHYMERFHQHGIIAAQLLLTRKDFQNQTQYTNAYSALMELLKRGALPIINENDSTSIAELTFGDNDMLSALVSGLIHAHTLCILTDVNGLYDANPKTHPNAKRYQYLPTIPDEMLQMGGEAGSNVGTGGMKSKVAAAQTALSLGVDVFIGKASGEHALLDILSGKGDGTYVGNTGDLMEGKTKQWIRLHSPVSGVVRIDQGAERAIMNEGKSLLPAGVTSVHGTFQAGDVVHIWNEQNKVIAKGQVTLSSEQLRKVQGRKSDEAKQLIPLVRDEVVHRDQLVIQEKELNESEGHHHHHH”, the “soluble on expression in E. coli” value is given as “not soluble”.
In the case of “MKGHCHCGAVRWQSDGKVAWSCYCHCADCRRNCAAPVTAFFGLPHESVTWSGDAPRIYRSTDRVERLFCGTCGTQMAYRNADDRVNIHLYTATLEDPSALPPRFHVFHTARLPWLDLQDDLPRFDRTAG” it was “not soluble”.
Consider “KEYSHLPIKGNESNLIDTLEDAISLRVPKNRPFAVALSGGLDSSIIAYILEARLSENAHYYVVGERYPDSVLALLEHLNICLSRVHLIKPPPADELLKLITKTCHITKSYNPSIISNGLATLLLCKAVHQDGIRVMLSGEGADEFFCGYQGMYNGRNDPTEMRANLIKDLHFTELRRLDLISASFSVEARCPFLDQRVTQIAMMLDVKNLCDIPMNIGKTLLRDTFKHLLPHSIINAPKESFDITSGLQKLVIDELQKEFKSERVALRTIFEKTLANY”, for which the “soluble on expression in E. coli” value is reported as “not soluble”.
Consider “APQGINQFALLLNKQDTLTEFDTLVPGRFQAMRDGTRVTYTEELSKDRGELAGIFISQKDLNSSNQERGISILVAEKGTQNIQADGSRYLILHNGYRYDGNPGQANYRAIQYDTYGVMLPKPEASSEVSERDAVPTADLFGSDNPRYQAELQWR”, for which the “soluble on expression in E. coli” value was “not soluble”.
